Reference: article PMC11083199, “Cytokine Receptor-like Factor 1 (CRLF1) and Its Role in Osteochondral Repair” (Cells, 2024)

Biological target: the molecule itself
Assay: non-reducing and reducing SDS gel electrophoresis with immunoblot; conditioned medium of BMSCs transduced with AAV-CRLF1; NuPAGE SDS sample buffer without and with reducing agent, 70 °C for 10 min, 10% bis-Tris gels; blotted with antibodies specific for CRLF1 or CLC

B1: Cytokine receptor-like factor 1 (CRLF1) (natural protein, human, UniProt O75462 38-422, looked up)
chain: AHTAVISPQDPTLLIGSSLLATCSVHGDPPGATAEGLYWTLNGRRLPPELSRVLNASTLALALANLNGSRQRSGDNLVCHARDGSILAGSCLYVGLPPEKPVNISCWSKNMKDLTCRWTPGAHGETFLHTNYSLKYKLRWYGQDNTCEEYHTVGPHSCHIPKDLALFTPYEIWVEATNRLGSARSDVLTLDILDVVTTDPPPDVHVSRVGGLEDQLSVRWVSPPALKDFLFQAKYQIRYRVEDSVDWKVVDDVSNQTSCRLAGLKPGTVYFVQVRCNPFGIYGSKKAGIWSEWSHPTAASTPRSERPGPGGGACEPRGGEPSSGPVRRELKQFLGWLKKHAYCSNLSFRLYDQWRAWMQKSHKTRNQDEGILPSGRRGTARGPAR
notes: Cytokine receptor-like factor 1, human, full-length cDNA cloned into an AAV vector; released into the medium by BMSCs; Full-length cDNA was cloned into the backbone pENN.AAV.CB7.Cl.eGFP.WPRE.rBG (Addgene 105542 is the vector, not this construct); Bands: ~110 kDa non-reduced, 55 kDa reduced; also called CRLF1dim; CRLF1mon; source: human BMSCs transduced with AAV containing CRLF1, in conditioned …
With B1 the “stoichiometry N” value was 2.
